Measurements: the supplement of paper PMC11780869

Test system: Bacillus subtilis
Test: cleaved RNA product abundance (RNA/gDNA barcode ratio) relative to median wild-type variant (ratio to wild type); higher = more accumulation of the downstream cleavage product
Settings: cleavage site: cggR-gapA (positions -7 to +36 mutated)
How it was run: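 Cleaved product abundance for each construct is its RNA-to-gDNA barcode ratio, scaled to the median construct carrying the unmutated site. Cleaved RNA was isolated on a gel, reverse transcribed and barcode-sequenced, with genomic DNA barcodes sequenced alongside and UMIs collapsed. The reporters were truncated aprE or tetM mRNAs with barcoded, mutagenized RNase Y cleavage-site windows integrated into the B. subtilis chromosome, and cultures grew in LB at 37°C from OD600 0.0003 to 0.3.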

[1] = experiment (reporter, strain, medium): exp 2b: truncated aprE reporter, strain BJT200
[2] = experiment (reporter, strain, medium): exp 4a: truncated aprE reporter, strain BJT201 with 2% xylose (RNase J1 expressed)

ACAGACGAAGGAGCCGCAAAGAAGTTATTAAGGCATGAATAATTCCTCAATATAAATATCTCTCACTTATTTAAA
cleaved RNA product abundance [1]: 0.107
cleaved RNA product abundance [2]: 0.133

ACAGACGAAGGAGCCGCAAAGAAGTTATTAAGGCATGAATACTCCCTCAATATAAATATCTCTCACTTATTTAAA
cleaved RNA product abundance [2]: 0.072

ACAGACGAAGGAGCCGCAAAGAAGTTATTAAGGCATGAATATTCCCTCAATATAAATATCTCTCACTTATTTAAA
cleaved RNA product abundance [1]: 0.119
cleaved RNA product abundance [2]: 0.144

ACAGACGAAGGAGCCGCAAAGAAGTTATTAAGGCATGAATTATCCCTCAATATAAATATCTCTCACTTATTTAAA
cleaved RNA product abundance [1]: 0.0689
cleaved RNA product abundance [2]: 0.132

ACAGACGAAGGAGCCGCAAAGAAGTTATTAAGGCATGACTAATCCCTCAATATAAATATCTCTCACTTATTTAAA
cleaved RNA product abundance [1]: 0.101
cleaved RNA product abundance [2]: 0.102

ACAGACGAAGGAGCCGCAAAGAAGTTATTAAGGCATGATTAATCCCTCAATATAAATATCTCTCACTTATTTAAA
cleaved RNA product abundance [1]: 0.125
cleaved RNA product abundance [2]: 0.15

ACAGACGAAGGAGCCGCAAAGAAGTTATTAAGGCATTAATAATCCCTCAATATAAATATCTCTCACTTATTTAAA
cleaved RNA product abundance [1]: 0.0847
cleaved RNA product abundance [2]: 0.108

ACAGACGAAGGAGCCGCAAAGAAGTTATTAAGGCGTGAATAATCCCTCAATATAAATATCTCTCACTTATTTAAA
cleaved RNA product abundance [1]: 0.097
cleaved RNA product abundance [2]: 0.116

ACAGACGAAGGAGCCGCAAAGAAGTTATTAAGGCTTGAATAATCCCTCAATATAAATATCTCTCACTTATTTAAA
cleaved RNA product abundance [1]: 0.115
cleaved RNA product abundance [2]: 0.11

ACAGACGAAGGAGCCGCAAAGAAGTTATTAAGGGAAAAATAATCCCTCAATATAAATATCTCTCACTTATTTAAA
cleaved RNA product abundance [2]: 0.771

ACAGACGAAGGAGCCGCAAAGAAGTTATTAAGGGAACAATAATCCCTCAATATAAATATCTCTCACTTATTTAAA
cleaved RNA product abundance [2]: 0.79

ACAGACGAAGGAGCCGCAAAGAAGTTATTAAGGGAAGAAAAATCCCTCAATATAAATATCTCTCACTTATTTAAA
cleaved RNA product abundance [1]: 0.684
cleaved RNA product abundance [2]: 0.436

ACAGACGAAGGAGCCGCAAAGAAGTTATTAAGGGAAGAACAATCCCTCAATATAAATATCTCTCACTTATTTAAA
cleaved RNA product abundance [2]: 0.73

ACAGACGAAGGAGCCGCAAAGAAGTTATTAAGGGAAGAATAAACCCTCAATATAAATATCTCTCACTTATTTAAA
cleaved RNA product abundance [1]: 0.301
cleaved RNA product abundance [2]: 0.27

ACAGACGAAGGAGCCGCAAAGAAGTTATTAAGGGAAGAATAACCCCTCAATATAAATATCTCTCACTTATTTAAA
cleaved RNA product abundance [1]: 0.283
cleaved RNA product abundance [2]: 0.369

ACAGACGAAGGAGCCGCAAAGAAGTTATTAAGGGAAGAATAAGCCCTCAATATAAATATCTCTCACTTATTTAAA
cleaved RNA product abundance [1]: 0.433
cleaved RNA product abundance [2]: 0.823

ACAGACGAAGGAGCCGCAAAGAAGTTATTAAGGGAAGAATAATACCTCAATATAAATATCTCTCACTTATTTAAA
cleaved RNA product abundance [1]: 0.101
cleaved RNA product abundance [2]: 0.156

ACAGACGAAGGAGCCGCAAAGAAGTTATTAAGGGAAGAATAATCACTCAATATAAATATCTCTCACTTATTTAAA
cleaved RNA product abundance [1]: 0.109
cleaved RNA product abundance [2]: 0.104

ACAGACGAAGGAGCCGCAAAGAAGTTATTAAGGGAAGAATAATCCATCAATATAAATATCTCTCACTTATTTAAA
cleaved RNA product abundance [1]: 0.114
cleaved RNA product abundance [2]: 0.105

ACAGACGAAGGAGCCGCAAAGAAGTTATTAAGGGAAGAATAATCCCACAATATAAAAATCTCTCACTTATTTAAA
cleaved RNA product abundance [2]: 0.118

ACAGACGAAGGAGCCGCAAAGAAGTTATTAAGGGAAGAATAATCCCTAAATATAAAAATCTCTCACTTATTTAAA
cleaved RNA product abundance [2]: 0.415

ACAGACGAAGGAGCCGCAAAGAAGTTATTAAGGGAAGAATAATCCCTAAATATAAATATCTCTCACTTATTTAAA
cleaved RNA product abundance [2]: 0.326

ACAGACGAAGGAGCCGCAAAGAAGTTATTAAGGGAAGAATAATCCCTCAAAATAAATATCTCTCACTTATTTAAA
cleaved RNA product abundance [1]: 0.17
cleaved RNA product abundance [2]: 0.182
